# Assay results: article PMC10021052, “Novel multivalent S100A8 inhibitory peptides attenuate tumor progression and metastasis by inhibiting the TLR4-dependent pathway” (Cancer Gene Therapy, 2023)
# “Also recorded” adds a separate entry of the source.
# B1: human S100A8 recombinant protein, full length (natural protein)
# chain: MLTELEKALNSIIDVYHKYSLIKGNFHAVYRDDLKKLLETECPQYIRKKGADVWFKELDINTDGAVNFQEFLILVIKMGVAAHKKSHEESHKE
# What was measured:
# [1] = test system: p38 and p65 (NF-κB) in SW480 cells; settings: ref [8]; cited from earlier work
# Source text: TLR4/MD-2 dimerizes upon ligand binding. To attempt the inhibitory peptide fitted into dimerized forms, we generated a divalent peptide of peptide3A5 using Fmoc-Lys (Fmoc)-OH to form two branches in the peptide chain. […] We then examined the effect of divalent peptide3A5 on TLR4/MD-2 downstream signaling. […] Pretr ...
# [2] = test system: tumor cells and macrophages; settings: ref [8]; cited from earlier work
# Source text: S100A8 belongs to the S100s family and is characterized by two calcium-binding EF-hand motifs: a carboxyl-terminal EF-hand (high affinity to calcium), and an N-terminal EF-hand (low affinity to calcium) that are connected by a central hinge. Like most S100 proteins, S100A8 can form a heterodimer with S100A9 or can exist as a homodimer or monomer. Vogl et al. originally reported that S100A8-mediated cytokine induction was mediated via TLR4 [5].
# SW480 cells = assay: qPCR, S100A8-mediated IL-8 and VEGF mRNA induction in SW480 cells; assay type: cell-based, human; settings: Fig. 2E
# Description: SW480 cells were treated with S100A8 in Dulbecco’s Modified Eagle Medium/HamF12 supplemented with 0.1% bovine serum albumin for cytokine induction. Total RNA was extracted using the RNeasy Mini Plus (Qiagen, Hilden, Germany). Complementary DNA was synthesized using the PrimeScript 1st Strand Synthesis kit (Takara Bio, Japan). Quantitative PCR (qPCR) analysis was performed using the PowerUp^TM SYBR^TM Green mixture (Thermo Fisher Scientific) and the StepOnePlus Real Time PCR System (Thermo Fisher Scientific). Gene expression levels were calculated from Ct values, and the relationship between the Ct value and the logarithm of the copy number of a target gene was confirmed to be on a linear line using the corresponding isolated DNA and its serial dilutions as a standard. Thus, the gene expression levels of IL-8 and VEGF were normalized against that of β-actin in each sample. The following primers were used; β-actin, 5′-[…]-3′ and 5′-[…]-3′; IL-8, 5′-[…]-3′ and 5′-[…]-3′; VEGF, 5′-[…]-3′ and 5′-[…]-3′.
# Fig. 2 Identification of S100A8 binding sites to human TLR4/MD-2. […] TLR4/MD-2 recombinant proteins were immobilized to the ELISA plate. After blocking, a full length or deletion mutant of S100A8 was added to the plate. The more detailed methods are described in Materials and Methods. […] B A series of overlapping S100A8 synthetic peptides. The TLR4/MD-2 recombinant proteins were added to each well of peptide immobilized plates. The affinity to TLR4/MD-2 was determined. Data are shown as mean ± SD. C The competitive activity was determined using ELISA. Data are shown as mean ± SD. D The TLR4/MD-2 was mixed with S100A8 with/without the indicated peptides, and immunoprecipitated using an anti-TLR4 antibody. TLR4 or S100A8 was visualized. Similar results were obtained in three independent experiments. […] Total RNAs from SW480 cells with/without treatment of the peptide candidates were extracted and qPCR analysis was performed using relevant primer sets and SYBR green. Relative expression levels were compared. […] TEXT PRINTED IN THE PICTURE: (A) Full length: TLR4/MD-2 binding: + | (A) S100A8-ΔC: TLR4/MD-2 binding: − | (A) S100A8-N: TLR4/MD-2 binding: −
# Fig. 4 Improvement of competitive inhibition activity by divalent peptide3A5. A The binding capacity was measured at the indicated concentration using an ELISA-based assay. Similar results were obtained in three independent experiments. B SW480 cells were pretreated with 2.5 µM of divalent peptide3A5, and then stimulated with human S100A8 recombinant protein. After 30 min, cell lysates were subjected to western blotting using the indicated antibody. The divalent peptide#3 or peptide3A5 reduced the expression of S100A8-mediated IL-8 (C) and VEGF (D) induction. Total RNAs from SW480 cells with/without treatment of the peptide candidates were extracted and qPCR analysis was performed using relevant primer sets and SYBR green. Relative expression levels were compared. Peptide #3 suppresses S100A8-mediated IL-8(E) and VEGF (F) secretion in SW480 cells.
# MDSCs = assay: In vivo S100A8 stimulation, MDSC recruitment to lungs; design: species or system C57BL/6J mice; settings: recombinant S100A8 i.v., 4 h; *P < 0.05 vs control
# Description: Balb nu/nu or C57BL/6J mice were purchased from Clea Japan Inc. (Tokyo, Japan). Mice were used for experiments at 2–3 months of age. […] For in vivo S100A8 stimulation, C57BL/6J mice were intravenously injected with mammalian-derived S100A8. Four hours after the i.v. injection, mice were sacrificed, and minced mouse lungs were digested with collagenase/dispase/DNase solution. Collected cells were incubated with anti-CD11b-PE (BD Bioscience), anti-Ly6G-FITC (BD Bioscience), and anti-Ly6C-APC (BD Bioscience) antibodies, and analyzed by a flow cytometry (Cytomics FC500; Beckman Coulter, Brea, CA, USA). […] The mice were sacrificed after 16 h, and minced mouse lungs were digested with collagenase/dispase/DNase solution. The recruitment of MDSCs or PKH-26 labeled tumor cells in the lungs was determined by flow cytometry (CytoFlex; Beckman Coulter).
# PD-L1 in macrophages = test system: PD-L1 in macrophages; design: method as in PMID 32198140; settings: ref [29]; cited from earlier work
# [3] = test system: S100A8-mediated cell migration; settings: ref [8]; cited from earlier work
# Source text: VEGF is another NFκB-mediated re ...
# [4] = target: human TLR4/MD-2 complex (human) (UniProt O00206)
# Chain of human TLR4/MD-2 complex (human) (O00206 24-839, chain 1 of 2): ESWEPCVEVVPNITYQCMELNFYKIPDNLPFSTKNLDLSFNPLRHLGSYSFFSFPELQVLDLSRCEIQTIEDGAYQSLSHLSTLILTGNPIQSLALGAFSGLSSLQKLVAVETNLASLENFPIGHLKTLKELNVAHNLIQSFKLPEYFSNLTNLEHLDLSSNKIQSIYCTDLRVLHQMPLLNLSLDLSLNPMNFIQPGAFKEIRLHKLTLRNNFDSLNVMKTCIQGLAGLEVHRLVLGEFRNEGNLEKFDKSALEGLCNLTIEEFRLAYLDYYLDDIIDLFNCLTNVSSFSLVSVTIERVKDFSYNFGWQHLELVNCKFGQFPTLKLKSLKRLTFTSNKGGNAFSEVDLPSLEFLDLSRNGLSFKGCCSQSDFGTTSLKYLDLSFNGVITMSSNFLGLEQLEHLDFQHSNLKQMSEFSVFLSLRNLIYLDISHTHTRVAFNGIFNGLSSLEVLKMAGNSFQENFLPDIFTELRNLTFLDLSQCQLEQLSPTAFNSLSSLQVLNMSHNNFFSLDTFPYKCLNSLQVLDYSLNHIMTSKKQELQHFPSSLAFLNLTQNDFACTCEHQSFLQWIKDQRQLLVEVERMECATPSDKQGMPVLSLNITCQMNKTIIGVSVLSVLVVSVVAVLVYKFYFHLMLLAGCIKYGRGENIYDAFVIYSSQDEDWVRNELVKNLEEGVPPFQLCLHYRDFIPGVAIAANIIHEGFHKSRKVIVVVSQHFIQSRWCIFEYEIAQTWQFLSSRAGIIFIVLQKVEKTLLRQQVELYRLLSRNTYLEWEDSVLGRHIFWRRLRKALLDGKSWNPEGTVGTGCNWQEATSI
# Chain of human TLR4/MD-2 complex (human) (Q9Y6Y9 19-160, chain 2 of 2, further chain): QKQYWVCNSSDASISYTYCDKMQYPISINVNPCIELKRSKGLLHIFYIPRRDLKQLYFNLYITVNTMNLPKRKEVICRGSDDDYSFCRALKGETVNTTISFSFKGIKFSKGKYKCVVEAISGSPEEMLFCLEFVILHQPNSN
molecule,measurement,setting,value
B1,phosphorylation of p38 MAP kinase / NF-κB activation by S100A8,[1],"induced phosphorylation of p38 MAP kinase, followed by activation of NF-κB signaling"
same,induction of inflammatory cytokines/chemokines by S100A8,[2],induced inflammatory cytokines/chemokines in a TLR4-dependent manner
same,IL-8 production induced by S100A8,SW480 cells,induced IL-8 production
same,recruitment of MDSCs from bone marrow to lungs,MDSCs,increased the recruitment of MDSCs from the bone marrow to the lungs; also recorded: induces pulmonary recruitment of MDSCs from bone marrow
same,PD-L1 expression in macrophages,PD-L1 in macrophages,upregulated PD-L1 in macrophages via a TLR4-dependent pathway
same,cell migration induced by S100A8,[3],induces cell migration in a TLR4-dependent manner
same,S100A8-induced phosphorylation of p38 in SW480 cells pretreated with 2.5 µM divalent peptide3A5: fold inhibition,[4],1.3 fold
same,S100A8-induced phosphorylation of p65 (NF-κB) in SW480 cells pretreated with 2.5 µM divalent peptide3A5: fold inhibition,[4],1.7 fold
